Results published in PMC12451656, “HMGB1 B‑Box Domain Associates Promote Protein–Polyelectrolyte Interactions” (The Journal of Physical Chemistry. B, 2025).

Target: the molecule itself
Assay: dynamic light scattering; as-prepared, unfiltered B-box, 30 μM, 25 mM Tris-HCl pH 6.9, 150 mM NaCl, 25 °C, backscattering mode; the retentate of the 30 kDa filter was also measured (Figure S6)

B1: HMGB1 B-box domain (domain or fragment, human)
chain: MARIDPNAPKRPPSAFFLFCSEYRPKIKGEHPGLSIGDVAKKLGEMWNNTAADDKQPYEKKAAKLKEKYEKDIAAYRAKGKPDAAKKGVV
notes: initiator methionine followed by the triplet alanine-arginine-isoleucine (ARI), inserted through the forward primer for better expression; HMGB1 (high mobility group box 1), human, B-box domain, cloned from the human HMGB1 cDNA; Numbers count on: the construct (Cys19 = Cys106 of full-length HMGB1; Trp46); By the reverse primer, the XhoI site adds LE between V176 and the SGS-His8 tag; The DLS …
B1 was tested, and the “stoichiometry N” value was about 8.
